Source: paper PMC5773591, “Structural basis of trans-synaptic interactions between PTPδ and SALMs for inducing synapse formation” (Nature Communications, 2018)
Blank lines part the entries; values can stand above or below the molecule they belong to.

B1: human SALM5 LRR–Ig-His6 (residues 18–378) (domain or fragment, UniProt Q96NI6 18-378, looked up)
chain: QICPKRCVCQILSPNLATLCAKKGLLFVPPNIDRRTVELRLADNFVTNIKRKDFANMTSLVDLTLSRNTISFITPHAFADLRNLRALHLNSNRLTKITNDMFSGLSNLHHLILNNNQLTLISSTAFDDVFALEELDLSYNNLETIPWDAVEKMVSLHTLSLDHNMIDNIPKGTFSHLHKMTRLDVTSNKLQKLPPDPLFQRAQVLATSGIISPSTFALSFGGNPLHCNCELLWLRRLSREDDLETCASPPLLTGRYFWSIPEEEFLCEPPLITRHTHEMRVLEGQRATLRCKARGDPEPAIHWISPEGKLISNATRSLVYDNGTLDILITTVKDTGAFTCIASNPAGEATQIVDLHIIKLP
notes: human SALM5 (synaptic adhesion-like molecule 5, Lrfn family), LRR–Ig, residues 18–378; Homodimer by SEC-MALS; The synaptogenic assay used another construct (entire ECD fused to Fc); also called SALM5 WT; apo-SALM5; source: Expi293F, transiently expressed, secreted, purified (Ni-NTA, Superdex200 SEC); not shown: His6, C-terminal, kept

Tests used:
[1] = target: human SALM5 LRR–Ig-His6 I358A (human) (UniProt Q96NI6); assay: SPR; Biacore T200, 25 °C, 10 mM Hepes-Na (pH 7.5), 200 mM NaCl, 0.05% Tween20; SALM5 proteins immobilised on a CM5 chip by amino coupling; PTPδ proteins injected as analytes (0.1–260 μM)
[2] = target: human SALM5 LRR–Ig-His6 L288A (human) (UniProt Q96NI6); assay: as above
[3] = target: human SALM5 LRR–Ig-His6 I321A (human) (UniProt Q96NI6); assay: as above
[4] = target: human SALM5 LRR–Ig-His6 L249A (human) (UniProt Q96NI6); assay: as above
[5] = target: human SALM5 LRR–Ig-His6 (residues 18–378) (human) (UniProt Q96NI6); assay: as above
[6] = target: human SALM5 LRR–Ig-His6 R253A (human) (UniProt Q96NI6); assay: as above
[7] = target: human SALM5 LRR–Ig-His6 Q134N (human) (UniProt Q96NI6); assay: as above
[8] = target: IL1RAPL1 (Mus musculus) (UniProt P59823); conditions: cited from earlier work
[9] = target: mouse PTPδ Ig1–Fn1 (A9B–) (mouse, UniProt Q64487 28-418, B– (meB insert 234ELRE237 absent)); assay: SPR; Biacore T200, 25 °C, 10 mM Hepes-Na (pH 7.5), 200 mM NaCl, 0.05% Tween20; SALM5 proteins immobilised on a CM5 chip by amino coupling; PTPδ proteins injected as analytes (0.1–260 μM); conditions: both partners purified
[10] = target: the molecule itself; assay: SEC-MALS; SALM LRR–Ig proteins at 0.5 g/L on ENrich SEC 650 in 20 mM Tris-HCl (pH 7.4), 250 mM NaCl; dimer of monomers
[11] = target: B1; assay: SPR; Biacore T200, 25 °C, 10 mM Hepes-Na (pH 7.5), 200 mM NaCl, 0.05% Tween20; SALM5 proteins immobilised on a CM5 chip by amino coupling; PTPδ proteins injected as analytes (0.1–260 μM); conditions: both partners purified

Chain of IL1RAPL1 (Mus musculus) (P59823 25-357): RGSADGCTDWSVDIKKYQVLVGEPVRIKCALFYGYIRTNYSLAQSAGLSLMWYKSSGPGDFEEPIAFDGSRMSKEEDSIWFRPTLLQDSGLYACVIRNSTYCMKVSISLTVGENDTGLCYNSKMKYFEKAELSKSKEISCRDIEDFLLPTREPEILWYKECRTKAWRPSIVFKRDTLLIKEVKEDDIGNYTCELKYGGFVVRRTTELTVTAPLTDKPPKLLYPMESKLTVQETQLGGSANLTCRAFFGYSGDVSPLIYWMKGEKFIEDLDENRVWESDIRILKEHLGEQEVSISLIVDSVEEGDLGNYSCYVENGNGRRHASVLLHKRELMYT

Molecule: mouse PTPδ Ig1–Fn1 (A9B+)-His6 (domain or fragment)
- Kd [1]: 31.4 µM
- Kd [2]: 129 µM
- Kd [3]: 21.9 µM
- Kd [4]: 169 µM
- Kd [5]: 14.4 µM
- Kd [6]: 95.2 µM
- Kd [7]: 9 µM

Molecule: mouse PTPδ Ig1–Fn1 (A9B+)-His6 V143A (domain or fragment)
- Kd [5]: 150 µM

Molecule: PTPδ (from UniProt Q64487)
- Kd [8]: 0.15 µM

Molecule: B1
- Kd [9]: 106 ± 17 µM
- stoichiometry N [10]: 2

B2: mouse SALM2 LRR–Ig-His6 (residues 32–390) (domain or fragment, UniProt Q2WF71 32-390, looked up)
chain: QPCPGRCICQNVAPTLTMLCAKTGLLFVPPAIDRRVVELRLTDNFIAAVRRRDFANMTSLVHLTLSRNTIGQVAAGAFADLRALRALHLDSNRLAEVRGDQLRGLGNLRHLILGNNQIRKVESAAFDAFLSTVEDLDLSYNNLEALPWEAVGQMVNLNTLTLDHNLIDHIAEGTFVQLHKLVRLDMTSNRLHKLPPDGLFLRSQGGGPKPPTPLTVSFGGNPLHCNCELLWLRRLTREDDLETCATPEHLTDRYFWSIPEEEFLCEPPLITRQAGGRALVVEGQAVSLRCRAVGDPEPVVHWVAPDGRLLGNSSRTRVRGDGTLDVTITTLRDSGTFTCIASNAAGEATAPVEVCVVPL
notes: mouse SALM2 (synaptic adhesion-like molecule 2, Lrfn family), LRR–Ig, residues 32–390; Homodimer by SEC-MALS; source: Expi293F, transiently expressed, secreted, purified (Ni-NTA, Superdex200 SEC); not shown: His6, C-terminal, kept
- stoichiometry N [10]: 2

B3: mouse PTPδ Ig1–Fn1 (A9B+)-His6 Q209A (domain or fragment)
chain: ETPPRFTRTPVDQTGVSGGVASFICQATGDPRPKIVWNKKGKKVSNQRFEVIEFDDGSGSVLRIQPLRTPRDEAIYECVASNNVGEISVSTRLTVLREDQIPRGFPTIDMGPQLKVVERTRTATMLCAASGNPDPEITWFKDFLPVDTSNNNGRIKQLRSESIGGTPIRGALQIEQSEESDAGKYECVATNSAGTRYSAPANLYVRELREVRRVPPRFSIPPTNHEIMPGGSVNITCVAVGSPMPYVKWMLGAEDLTPEDDMPIGRNVLELNDVRQSANYTCVAMSTLGVIEAIAQITVKALPKPPGTPVVTESTATSITLTWDSGNPEPVSYYIIQHKPKNSEEPYKEIDGIATTRYSVAGLSPYSDYEFRVVAVNNIGRGPASEPVLTQ
- Kd [11]: 21.9 ± 0.23 µM

Now from value to molecule:

- Kd [5]: 39.9 µM
Molecule: mouse PTPδ Ig1–Fn1 (A9B+)-His6 M137A (domain or fragment)

- Kd [5]: 70.9 µM
Molecule: mouse PTPδ Ig1–Fn1 (A9B+)-His6 Y231A (domain or fragment)

- Kd [5]: 37.3 µM
Molecule: mouse PTPδ Ig1–Fn1 (A9B+)-His6 M312A (domain or fragment)

- Kd [5]: 77.5 µM
Molecule: mouse PTPδ Ig1–Fn1 (A9B+)-His6 Y273A (domain or fragment)

- Kd [5]: 25 µM
Molecule: mouse PTPδ Ig1–Fn1 (A9B+)-His6 L153A (domain or fragment)

- Kd [5]: 13.5 µM
Molecule: mouse PTPδ Ig1–Fn1 (A–B+) (from UniProt Q64487 28-418) (domain or fragment)

- Kd [11]: 24.8 ± 1.2 µM
B4: mouse PTPδ Ig1–Fn1 (A9B+)-His6 R233A (domain or fragment)
chain: ETPPRFTRTPVDQTGVSGGVASFICQATGDPRPKIVWNKKGKKVSNQRFEVIEFDDGSGSVLRIQPLRTPRDEAIYECVASNNVGEISVSTRLTVLREDQIPRGFPTIDMGPQLKVVERTRTATMLCAASGNPDPEITWFKDFLPVDTSNNNGRIKQLRSESIGGTPIRGALQIEQSEESDQGKYECVATNSAGTRYSAPANLYVAELREVRRVPPRFSIPPTNHEIMPGGSVNITCVAVGSPMPYVKWMLGAEDLTPEDDMPIGRNVLELNDVRQSANYTCVAMSTLGVIEAIAQITVKALPKPPGTPVVTESTATSITLTWDSGNPEPVSYYIIQHKPKNSEEPYKEIDGIATTRYSVAGLSPYSDYEFRVVAVNNIGRGPASEPVLTQ
